B1: uncharacterized protein DR_0644 (natural protein, Deinococcus radiodurans, UniProt Q9RWM2 20-206, looked up)
chain: GPTEGTYTLAPQAVVKPAGPVYAPAGTAKISETLGVTRTTITLTGMAPYAIYVAHYHKMGTAAPMGSAPATNTNMAMSSTDATATTTASTSTTSTDTTVAASTDMTTTVTMAPVTAAPNPCNSDGPAIMESRMIAQASADGKVTLTGIVPTALIRDAAYINVHHGRDFSGALADSGVICTPITMTMR
notes: uncharacterized protein DR_0644, Deinococcus radiodurans; the mature protein, fitted from the mature N-terminus Gly20 to the C-terminus Arg206, with an unstructured loop 82-133; Identified from the map density combined with structural modelling (rigid-body fit of an AlphaFold2 model); also called accessory protein; additional protein density; source: endogenous, D. radiodurans; present with the …
B2: SlpA (Deinococcus radiodurans outer membrane protein) (natural protein, UniProt Q9RRB6 23-1167, looked up)
chain: APVSAPQVPALTDVPAGHWAKDAIDRLVSRGVILGYPDGTFRGTQNLTRYEAAIIIARLLDQMRDGETPAGMTAEDMTALQNAIQELAADLAALGVRVSDLEANAVSKDDFARLEARIEEVAAAGGEQGATEALQGQIDDLTARVDEYDALRADVDDNASSIAALNDLTVLLNQDILDLQDRVSAVEAAQADFVQRSDFDALGGRVTTVETRVETVNNSLTGRIAALERNAFSVKPSLTIGYSVSRTSRNFDVDRLFPLNADGTVANNAFTSGGIDTDTGAQRRDFGDFGNASDPVVAGAAGLYGFADGVSYTVYFTDGSTATFDGLNPADYKVPTGKVIDTTKGRNGFGFNNLARYKEGSTDIGISLGFDTSGQFSQVTSGTGGSLFSTAGRLQVNQIDLNFGLVTGLPSDAYVDTNGNGKKDDGEATGRGTYLGSGGTAAILRDPAGNVYRPVFFRFKNATTQFSVGNNPVIVTLGQQQKFYFSDYVFDNNYDGRGDGFTVTVDGSNVPVIGAWKPQIKGVYGSRSGLDGTAEAGYGVYYRGVRAQITPVGTLTAGIHYAQEGRDMFGAAQNTTSTPSDVTTYGADLHGKAFGVELHSEYATSRVRPNTANAAVQTSNAFYARVATRKDNLAFDLNTPAAKFGNDTFGVSLYDLNYRKIDAGYNNVAGISEYGYGSYSRTSAQNIAYNPDTGVTAPFANLDRQAYTDANNDGTSDRNADGTVVATNTKIGQMGFGVKAAANLGPVAIGGYYDTSTGANGDNANRMTEAGGSAKVAYSIFSLRGTYNTLDSNRPQIYRDAAGTQIIGDAKVRRYAVQADVTPGLGLFVGAYYRDVNVNGVRSTTDRGLLGRGYLASSFEPGVGNNAYRTGLRCADNNFGTGTRDIDGVGGVLNPAVNLDQSRTATCFTSYGVEAGHAGDNANALVKDLFFRVGYSRVYVPTTATATTGDFSGSVTYGDARYDRKVGVANVRLAGSFSTTNTQLDSRPAGTRGAVGLIVRTDPLENVPFRPQFNGQVGYYTADNRVAAGNYNANATKYGAGVVLNDFLLPQTKIGVRYDGYMAQNRQYTPFDGDGTQGYFSDANNNRRTNLNGVYVEGAYQDLIFSYGTYTLSQKDLNGVEYGSGINNGQPARGQTFKISYKVNF
notes: SlpA, Deinococcus radiodurans, UniProtKB Q9RRB6; Native protein from the source organism, no tags; Only residues 215-1167 are well resolved in the cryo-EM map; also called SlpA protein complex; SlpA porin; source: purified from D. radiodurans (ATCC BAA816): DDM extraction, HiTrap-Q, Superose 6 Increase

Legend:
[1] = target: B2; test: cryo-EM structure; single-particle analysis of SlpA purified from D. radiodurans in detergent (20 mM HEPES/NaOH pH 7.5, 150 mM NaCl, 0.02 % DDM; 4.45 mg/mL); C3 symmetry; global resolution 3.25 Å; conditions: both partners purified
[2] = target: the molecule itself; test: as above

| Binder | binding result [1] | stoichiometry N [2] |
| --- | --- | --- |
| B1 | binds | 3 |
| B2 | – | 3 |

— paper doi:10.1101/2022.05.18.492506, “A multi-domain connector links the outer membrane and cell wall in deep-branching bacteria” (bioRxiv, 2022)
